# Results: patent US20080085859A1, “Drug Promoting Ceramide Transport, Base Sequence for Producing the Drug, Method of Measuring Activity of Promoting Ceramide Release and Method of Measuring Activity of Promoting Intermembrane Ceramide Transfer” (JAPAN SCIENCE AND TECHNOLOGY AGENCY, priority 2003, published 2008)
# Columns and labels:
# [1] = activity for promoting ceramide intermembrane transfer (donating/receiving membrane, castor seed lectin); format: biochemical
# Source text: Subsequently, as described in detail below, whether or not hCERT protein and recombinant protein promotes the transfer between ceramide lipid membrane was considered, the purified hCERT protein and its recombinant protein were used in this assay were used. The present method was constructed on the basis of the principle of method of measuring the activity for promoting the intermembrane transfer of phosphatidylinositol by phosphatidylinositol transfer protein already reported by Kasper et al (Biochim. Biophys. Acta 664, 22-32, 1981) so that it becomes a new method of measuring the activity for promoting the ceramide intermembrane transfer. For the purpose of measuring the activity for promoting the intermembrane transfer, a donating membrane in which radioactive ceramide has been contained and a receiving membrane not containing ceramide were prepared. For the purpose of separating the lipid membrane, lactocylceramide was contained in the donating membrane. After the donating membrane and receiving membrane have been incubated with the protein sample to be targeted, castor seed lectin was added. Ceramide intermembrane-transferred can be quantified by measuring the radioactive activity of receptor membrane which has not been precipitated by a low speed centrifugation. […]
# [2] = test system: LY-A2 cell; assay: sensibility to MCD and lysenin (MTT); format: cell-based, Chinese hamster
# Protocol: 100 thousand pieces of cells per each well of a 12-well culture dish were inoculated in 1 mL of F12/NBS culture medium and cultured at 33° C. overnight. After Cells existed on the culture dish was washed twice in 1 mL of serum-free F12 medium, 1 mL of 10 mM MCD/F12 or lysenin (25 ng/mL)/F12 was added. It should be noted that culture medium in which 1 mL of only serum-free F12 has been added was made control. After it has been incubated at 37° C. for one hour, it was washed twice in 1 mL of phosphate buffered saline (PBS). Subsequently, 1 mL of MTT (0.5 mg/mL)/F12 was added and incubated at 37° C. for one hour. The relative amount of the generated reduced form of MTT was measured by a method of reference literature written by Hanada et al (J. Biol. Chem. 273, 33787-33794, 1998).
# The relevant gene was expressed in LY-A2 cell by making virus particle derived from retrovirus vector infect it prepared in the foregoing paragraph. Specifically, the relevant gene was expressed in LY-A2 cell by making virus particle derived from pLIB/hCERT. In the case where hCERT was expressed, the purified transformed strain was also separated by a ultradilution method, and this strain was named as LY-A2/hCERT. After it has been cultured for days, the sensitivity to MCD and lysenin was examined by the above-described method. […]
# [3] = test system: LY-A2 cell; assay: content of phospholipids of cell; format: cell-based, Chinese hamster; details: LY-A2/hCERT cell, FIG. 3(B)
# Protocol: 3×10^6 cells per culture dish having the 150-mm diameter of CHO-K1 cell, LY-A2 cell, or LY-A2/hCERT cell was inoculated in 20 mL of F12/NBS medium, and cultured at 33° C. overnight. After it was washed twice in 10 mL of serum-free F12 medium, it was further cultured for 2 days in 20 mL of Nutridoma BO medium. After it was washed in PBS, the cells were collected by a method of scaping, suspended again in PBS, and lipid was extracted by a method described in Bligh et al (Can. J. Biochem. Physiol. 37, 911-917, 1959). The extracted lipid was separated using TLC whose development solvents were chloroform/methanol/acetic acid/H2O (volume ratio, 25:15:4:2). After the separated phospholipid on the TLC plate was colored by iodine vapor, the band of the respective separated phospholipid was scraped out from the plate. The scraped separated phospholipid was quantified by measuring phosphorus content by a method of Rouser et al (Lipids 1, 85-86, 1966).
# [4] = test system: SM synthase; assay: SM synthase activity, C6-NBD-Cer substrate, membrane fractions; format: biochemical, Chinese hamster; details: LY-A2/hCERT versus LY-A2 and CHO-K1 cells, FIG. 5
# Protocol: The assay of SM synthase activity was carried out using C6—NBD-Cer as a substrate by a method of Hanada et al (Biochim. Biophys. Acta 1086, 151-156, 1991). However, the membrane fractions prepared respectively from CHO-K1 cell, LY-A2 cell and LY-A2/hCERT cell were used as an enzyme source.
molecule,measurement,setting,value
"hCERT protein: human CERT protein having an amino acid sequence of SEQ ID NO:1 (protein, HeLa cell) MSDNQSWNSSGSEEDPETESGPPVERCGVLSKWTNYIHGWQDRWVVLKNNALSYYKSEDETEYGCRGSICLSKAVITPHDFDECRFDISVNDSVWYLRAQDPDHRQQWIDAIEQHKTESGYGSESSLRRHGSMVSLVSGASGYSATSTSSFKKGHSLREKLAEMETFRDILCRQVDTLQKYFDACADAVSKDELQRDKVVEDDEDDFPTTRSDGDFLHSTNGNKEKLFPHVTPKGINGIDFKGEAITFKATTAGILATLSHCIELMVKREDSWQKRLDKETEKKRRTEEAYKNAMTELKKKSHFGGPDYEEGPNSLINEEEFFDAVEAALDRQDKIEEQSQSEKVRLHWPTSLPSGDAFSSVGTHRFVQKVEEMVQNHMTYSLQDVGGDANWQLVVEEGEMKVYRREVEENGIVLDPLKATHAVKGVTGHEVCNYFWNVDVRNDWETTIENFHVVETLADNAIIIYQTHKRVWPASQRDVLYLSVIRKIPALTENDPETWIVCNFSVDHDSAPLNNRCVRAKINVAMICQTLVSPPEGNQEISRDNILCKITYVANVNPGGWAPASVLRAVAKREYPKFLKRFTSYVQEKTAGKPILF",activity for promoting ceramide intermembrane transfer,"[1]; 37° C., 14C of supernatant and donating membrane, FIGS. 17, 18","detected depending on the amount of hCERT, the length of incubation time and incubation temperature"
same,ceramide transferred to the receiving membrane vesicle,[1]; for 10 minutes,~50%
same,MCD resistance and lysenin sensitivity,"[2]; LY-A2 infected with virus particle derived from pLIB/hCERT, FIG. 2",significantly acquired MCD resistance and lysenin sensitivity
same,sensitivity to MCD and lysenin,"[2]; purified LY-A2/hCERT cell, FIG. 3(A)",approximately the same level as the sensitivity seen in the wild type CHO-K1 cell
same,SM content,[3],recovered to the wild type level
same,activity of the SM synthase,[4],no difference
